According to paper PMC5923501:

Tests used:
Assay in all cases: flow cytometry on cells; 5 × 10^6 CHO745 cells expressing the receptor or chimera incubated with 10 μg of Alexa fluorophore conjugated eE2 in 600 μL PBS at room temperature for 2 h, washed three times with PBS; read-out MFI of Alexa-647; one representative experiment of three
[1] = molecular target: hCD81 LEL-hCD9 backbone chimera (human) (UniProt P60033)
[2] = molecular target: hCD81 LEL-ceTSP9 backbone chimera (Caenorhabditis elegans | human) (UniProt P60033)
[3] = molecular target: scavenger receptor type B class I (SR-BI) (UniProt Q8WTV0)
Chain of UniProt Q8WTV0 (Q8WTV0 whole entry): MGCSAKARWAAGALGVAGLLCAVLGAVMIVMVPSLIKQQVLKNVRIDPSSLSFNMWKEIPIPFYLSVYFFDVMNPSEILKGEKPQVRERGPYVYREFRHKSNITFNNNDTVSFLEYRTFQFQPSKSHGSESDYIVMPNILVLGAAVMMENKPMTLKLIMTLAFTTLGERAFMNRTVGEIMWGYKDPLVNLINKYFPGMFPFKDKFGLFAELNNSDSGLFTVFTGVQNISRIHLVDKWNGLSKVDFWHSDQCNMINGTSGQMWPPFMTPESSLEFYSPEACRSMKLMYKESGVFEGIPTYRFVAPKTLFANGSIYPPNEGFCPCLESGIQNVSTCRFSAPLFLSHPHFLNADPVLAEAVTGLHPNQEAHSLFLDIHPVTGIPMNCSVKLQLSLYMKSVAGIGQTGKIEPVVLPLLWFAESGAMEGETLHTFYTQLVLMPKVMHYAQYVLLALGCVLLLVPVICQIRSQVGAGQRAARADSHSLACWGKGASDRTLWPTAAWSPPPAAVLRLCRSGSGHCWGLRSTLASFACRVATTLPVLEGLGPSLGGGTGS

| Substance | fold change of binding against wildtype J6 eE2 [1] | MFI [2] | MFI [3] |
| --- | --- | --- | --- |
| ΔHVR1 J6 eE2 (domain or fragment) | 3 fold | – | – |
| HCV E2 ectodomain (eE2) from genotype 2a (strain J6) (from UniProt P26660 384-729) (domain or fragment) | – | 15000 | 65000 |
| HCV E2 ectodomain (eE2) from genotype 1a (strain H77) (from UniProt P27958 384-725) (domain or fragment) | – | 20000 | 22000 |
